In general, Kd refers to the constant that tells how readily two partners part at equilibrium.

The record followed here is patent publication US20190062453A1 (Hoffmann-La Roche, published 2019).

The target of assay [1] is T1, Human FAP ectodomain + poly-lys-tag + his6-tag (human, UniProt Q12884 27-760).
T1 construct: also called recombinant soluble human FAP; hFAP
Briefly: SPR (Biacore), bispecific antibody bound to immobilised human DR5-Fc, recombinant human FAP as second analyte (simultaneous binding). On the technique in general: In SPR one partner is held on a chip, and binding of the other changes the refractive index at the surface.

Assay [2] has as its target murine FAP on recombinant 3T3 cells (murine, UniProt P97321 1-761). Briefly: cell-based or functional assay.
Assay [3] addresses T2, human DR5 (recombinant, fusion format not stated for the assay) (human, UniProt O14763 56-207).
T2 construct: all antigen constructs carry ECD aa 56-207; also called hu DR5; huDR5
Briefly: SPR (Biacore), affinity, 2+2 captured and DR5 injected.

Assay [4] concerns the target T3, Cynom. DR5 (ECD)-AcTev-Fc-Avi (cynomolgus).
T3 construct: also called cynomolgus DR5; cy DR5
The description is as above.

The target of assay [5] is T4, cynomolgus DR5 in the TagLite assay (cynomolgus).
T4 construct: also called cy DR5 (TagLite)
Briefly: TagLite TR-FRET on cells. In general terms: Time-resolved FRET reads energy transfer from a long-lived donor to a nearby acceptor.

Assay [6] concerns the target T2, human DR5 (recombinant, fusion format …). In words: SPR (Biacore), 2+2 over immobilised DR5 ECD.
Assay [7] has as its target T3, Cynom. DR5 (ECD)-AcTev-Fc-Avi. In words: SPR (Biacore), 2+2 over immobilised DR5 ECD.
Assay [8] concerns the target T1, Human FAP ectodomain + poly-lys-tag + …. Briefly: Affinity human, method not stated.

B1: DR5TAA-0033 (bispecific antibody, human IgG1, kappa)
heavy: not shown
light: ADIVMTQTPASVSEPVGGTVTIKCQASQSISTYLSWYQQKPGQPPKRLIYKASTLASGVPSRFKGSGSGTDFTLTIRDLECADAATYYCQPNSGIATYGAAFGGGTEVVVKRTVAAPSVFIFPPSDEQLKSGTASVVCLLNNFYPREAKVQWKVDNALQSGNSQESVTEQDSKDSTYSLSSTLTLSKADYEKHKVYACEVTHQGLSSPVTKSFNRGEC
chain: EIVLTQSPGTLSLSPGERATLSCRASQSVSRSYLAWYQQKPGQAPRLLIIGASTRATGIPDRFSGSGSGTDFTLTISRLEPEDFAVYYCQQGQVIPPTFGQGTKVEIKSSASTKGPSVFPLAPSSKSTSGGTAALGCLVKDYFPEPVTVSWNSGALTSGVHTFPAVLQSSGLYSLSSVVTVPSSSLGTQTYICNVNHKPSNTKVDKKVEPKSCD
notes: also called 0011-28H1
As to B1, the binding result in assay [1] was “binds”. In assay [2], the “Cell Death Detection ELISA, DLD-1 cells with 3T3 cells expressing murine FAP” value was found to be 10 fold. For the same molecule, the results for the Kd in assay [3] and in assay [4] were 9.8 nM and 20.2 nM, respectively. Also, the Avidity in assay [5] is 0.3 nM; in assay [6] it was 0.1 nM; in assay [7], 3.72 nM.

B2: 28H1 (antibody, V domains shown)
VH: EVQLLESGGGLVQPGGSLRLSCAASGFTFSSHAMSWVRQAPGKGLEWVSAIWASGEQYYADSVKGRFTISRDNSKNTLYLQMNSLRAEDTAVYYCAKGWLGNFDYWGQGTLVTVSS
VL: EIVLTQSPGTLSLSPGERATLSCRASQSVSRSYLAWYQQKPGQAPRLLIIGASTRATGIPDRFSGSGSGTDFTLTISRLEPEDFAVYYCQQGQVIPPTFGQGTKVEIK
notes: also called FAP(28H1); 28H1 (IgG)
For B2, the Kd in assay [8] was found to be 2.6 nM.
